# Measurements published in PMC5525514 (Journal of biomolecular screening, 2011).
# B1: GST-RGS17 (human RGS17 with an N-terminal glutathione-S-transferase and a C-terminal 6xHis tag) (domain or fragment, UniProt Q9UGC6 61-210, looked up)
# chain: MESIQVLEECQNPTAEEVLSWSQNFDKMMKAPAGRNLFREFLRTEYSEENLLFWLACEDLKKEQNKKVIEEKARMIYEDYISILSPKEVSLDSRVREVINRNLLDPNPHMYEDAQLQIYTLMHRDSFPRFLNSQIYKSFVESTAGSSSES
# B2: 6x-His-tagged Gαo, not biotinylated (free Gαo) (natural protein, UniProt P59215 1-354, looked up)
# chain: MGCTLSAEERAALERSKAIEKNLKEDGISAAKDVKLLLLGAGESGKSTIVKQMKIIHEDGFSGEDVKQYKPVVYSNTIQSLAAIVRAMDTLGVEYGDKERKADSKMVCDVVSRMEDTEPFSAELLSAMMRLWGDSGIQECFNRSREYQLNDSAKYYLDSLDRIGAADYQPTEQDILRTRVKTTGIVETHFTFKNLHFRLFDVGGQRSERKKWIHCFEDVTAIIFCVALSGYDQVLHEDETTNRMHESLMLFDSICNNKFFIDTSIILFLNKKDLFGEKIKKSPLTICFPEYPGSNTYEDAAAYIQTQFESKNRSPNKEIYCHMTCATDTNNIQVVFDAVTDIIIANNLRGCGLY
# B3: free Gαo: un-biotinylated Gαo protein used as competitor in the AlphaScreen competition binding assay (protein)
# chain: B2 chain
# modifications: left off: His6, end not stated, state not stated
# Key:
# [1] = target: biotinylated 6x-His-tagged Gαo (UniProt P59215 1-354, biotin (EZ-Link Biotin-BMCC, maleimide chemistry, labeled at a 10:1 biotin/protein ratio)); experiment: AlphaScreen or HTRF
# [2] = target: B1; experiment: AlphaScreen or HTRF
# [3] = target: T1, Gαo–RGS17 interaction (Homo sapiens, UniProt Q9UGC6); experiment: AlphaScreen competition binding with free Gαo
# T1 sequence (Q9UGC6 61-210 limits assumed): B1 chain
molecule,measurement,setting,value
B1,Kd,[1],29.2 ± 4.4 nM
B2,IC50,[2],46 ± 1.1 nM
B3,Hill slope,[3],−1.3
